Paper PMC9135616 (Biophysics and Physicobiology, 2022)
Substitutions are numbered along the chain they refer to.

Key:
Experiment in all cases: SEC
KaiC^F470Y = molecular target: T1, KaiC^F470Y (Synechococcus elongatus PCC 7942, UniProt Q79PF4 1-519, F470Y)
T1 sequence: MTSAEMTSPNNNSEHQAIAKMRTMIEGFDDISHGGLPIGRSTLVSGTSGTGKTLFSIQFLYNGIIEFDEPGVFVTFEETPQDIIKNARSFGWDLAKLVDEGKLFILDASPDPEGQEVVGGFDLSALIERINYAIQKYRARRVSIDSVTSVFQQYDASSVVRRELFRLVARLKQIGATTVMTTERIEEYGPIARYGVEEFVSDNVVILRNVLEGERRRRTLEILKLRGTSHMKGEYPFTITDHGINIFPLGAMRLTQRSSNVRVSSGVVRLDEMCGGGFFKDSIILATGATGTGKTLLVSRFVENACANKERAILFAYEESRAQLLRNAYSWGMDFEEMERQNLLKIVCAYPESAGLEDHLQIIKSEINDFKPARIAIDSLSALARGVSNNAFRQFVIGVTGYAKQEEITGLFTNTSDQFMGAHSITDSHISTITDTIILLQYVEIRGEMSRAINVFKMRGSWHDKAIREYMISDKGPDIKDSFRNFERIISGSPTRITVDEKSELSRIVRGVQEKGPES

[1] = molecular target: T2, KaiC-pSpT-mimicking S431D/T432E KaiC mutant (Synechococcus elongatus PCC 7942, UniProt Q79PF4 1-519, S431D | T432E)
T2 sequence: T1 sequence with S431D, T432E, Y470F

KaiC^S157P = molecular target: T3, KaiC^S157P (Synechococcus elongatus PCC 7942, UniProt Q79PF4 1-519, S157P)
T3 sequence: T1 sequence with S157P, Y470F

KaiC^C306A = molecular target: T4, KaiC^C306A (Synechococcus elongatus PCC 7942, UniProt Q79PF4 1-519, C306A)
T4 sequence: T1 sequence with C306A, Y470F

wild-type KaiC = molecular target: T5, wild-type KaiC (Synechococcus elongatus PCC 7942, UniProt Q79PF4 1-519)
T5 sequence: T1 sequence with Y470F

- binding result (KaiC^F470Y): binds
- koff [1]: 1.56e-06 s⁻¹
- binding result (KaiC^S157P): binds
- binding result (KaiC^C306A): binds
- koff (wild-type KaiC): 2.39e-05 s⁻¹
B1: KaiB (natural protein)
chain: MSPRKTYILKLYVAGNTPNSVRALKTLKNILEVEFQGVYALKVIDVLKNPQLAEEDKILATPTLAKVLPLPVRRIIGDLSDREKVLIGLDLLYGELQDSDDF
